Experimental findings from publication PMC12881857, “The MabZIP5–MaMYB69 module cooperates with MaERF55 to modulate banana fruit ripening via cell wall degradation” are described below.

Series [1] addresses T1, GST-MaMYB69 (banana, UniProt A0A804IQI7 1-348).
T1 sequence: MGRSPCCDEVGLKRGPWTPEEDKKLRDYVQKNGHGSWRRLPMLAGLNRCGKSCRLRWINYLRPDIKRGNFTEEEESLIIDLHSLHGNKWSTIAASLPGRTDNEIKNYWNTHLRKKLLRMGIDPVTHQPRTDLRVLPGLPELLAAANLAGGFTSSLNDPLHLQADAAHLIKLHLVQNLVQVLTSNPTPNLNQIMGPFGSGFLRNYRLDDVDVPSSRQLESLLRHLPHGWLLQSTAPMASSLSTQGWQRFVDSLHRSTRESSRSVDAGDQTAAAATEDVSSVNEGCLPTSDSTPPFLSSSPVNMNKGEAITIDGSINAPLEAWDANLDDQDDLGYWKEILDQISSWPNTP
Put plainly: EMSA; Chemiluminescent EMSA Kit (Beyotime); buffer, salt, pH and temperature not stated. The following applies: protein: recombinant, tags: GST (N-term, pGEX-4T-1), blunt. In general terms: Mobility shift assays separate free from complexed probe on a gel.

Series [2] deals with T1, GST-MaMYB69. Kind of series: competition; 50-fold excess mutant competitor vs N7; Chemiluminescent EMSA Kit (Beyotime); buffer, salt, pH and temperature not stated. The conditions noted are these: protein: recombinant; tags: GST (N-term, pGEX-4T-1); blunt.
Series [3] has as its target T1, GST-MaMYB69. Kind of series: competition; 50-fold excess mutant competitor vs N3; Chemiluminescent EMSA Kit (Beyotime); buffer, salt, pH and temperature not stated. The following applies: protein: recombinant; tags: GST (N-term, pGEX-4T-1); blunt.
For series [4], the target named is T1, GST-MaMYB69. Put plainly: competition; 50-fold excess mutant competitor vs N1; Chemiluminescent EMSA Kit (Beyotime); buffer, salt, pH and temperature not stated. The following applies: protein: recombinant; tags: GST (N-term, pGEX-4T-1); blunt.
Series [5] addresses T1, GST-MaMYB69. Put plainly: competition; 50-fold excess mutant competitor vs N9; Chemiluminescent EMSA Kit (Beyotime); buffer, salt, pH and temperature not stated. The following applies: protein: recombinant; tags: GST (N-term, pGEX-4T-1); blunt.
The target of series [6] is T1, GST-MaMYB69. Put plainly: competition; 50-fold excess mutant competitor vs N5; Chemiluminescent EMSA Kit (Beyotime); buffer, salt, pH and temperature not stated. The conditions noted are these: protein: recombinant; tags: GST (N-term, pGEX-4T-1); blunt.

B1: MaACO1 promoter probe (dsDNA)
DNA 1: ATTGCTTTCTTGTGGCCACCAACCGGAGAAAGGGAGTCTA
DNA 2: TAGACTCCCTTTCTCCGGTTGGTGGCCACAAGAAAGCAAT
On to B1, for which the binding result in the series with GST-MaMYB69 [1] is “binds”.

B2: MaPG3 promoter probe (dsDNA)
DNA 1: AGGCATCCAACAACTTTCTCCACCAACCTTGCTTGCATAC
DNA 2: GTATGCAAGCAAGGTTGGTGGAGAAAGTTGTTGGATGCCT
As for B2, the binding result in the series with GST-MaMYB69 [1] (label: biotin) was “binds”.

B3: MaMYB69 promoter probe (dsDNA)
DNA 1: AGGTGCCATGCCGCACACCTAAACCTCTTCTGCCCTTTTG
DNA 2: CAAAAGGGCAGAAGAGGTTTAGGTGTGCGGCATGGCACCT
Take B3: in the series with GST-MaMYB69 [1] (label: biotin), the binding result is listed as “binds”.

B4: MaPG3 mutant probe (dsDNA)
DNA 1: AGGCATCCAACAACTTTCTCCTTTTTTCTTGCTTGCATAC
DNA 2: GTATGCAAGCAAGAAAAAAGGAGAAAGTTGTTGGATGCCT
As for B4, the binding result with GST-MaMYB69 [2] was “no binding”.

B5: MaPL1 promoter probe (dsDNA)
DNA 1: TCCTGCATCTTGGACGAGTTTGGTGTACCCAAAGAGGACG
DNA 2: CGTCCTCTTTGGGTACACCAAACTCGTCCAAGATGCAGGA
On to B5, for which the binding result with GST-MaMYB69 [1] (label: biotin) is “binds”.

B6: MaPL1 mutant probe (dsDNA)
DNA 1: TCCTGCATCTTGGACGAGAAAAAAGTACCCAAAGAGGACG
DNA 2: CGTCCTCTTTGGGTACTTTTTTCTCGTCCAAGATGCAGGA
In the case of B6, the binding result with GST-MaMYB69 [3] is recorded as “no binding”.

B7: MaPE promoter probe (dsDNA)
DNA 1: GTGTCGATGGTGAAGTGTTTGGAGAAGTAGGAGCGGCAGC
DNA 2: GCTGCCGCTCCTACTTCTCCAAACACTTCACCATCGACAC
B7: the binding result with GST-MaMYB69 [1] (label: biotin) is “binds”.

B8: MaPE mutant probe (dsDNA)
DNA 1: GTGTCAAAAAAGAAGTGTTTGGAGAAGTAGGAGCGGCAGC
DNA 2: GCTGCCGCTCCTACTTCTCCAAACACTTCTTTTTTGACAC
B8: the binding result with GST-MaMYB69 [4] is “no binding”.

B9: MaMYB69 mutant probe (dsDNA)
DNA 1: AGGTGCCATGCCGCACTTTTTTAAAAAATCTGCCCTTTTG
DNA 2: CAAAAGGGCAGATTTTTTAAAAAAGTGCGGCATGGCACCT
Turning to B9, the binding result with GST-MaMYB69 [5] was “no binding”.

B10: MaGAL promoter probe (dsDNA)
DNA 1: GTAGGGAGACCAAATTGCTTGTGTGTGTTTGGTAGATAAA
DNA 2: TTTATCTACCAAACACACACAAGCAATTTGGTCTCCCTAC
As to B10, the binding result with GST-MaMYB69 [1] (label: biotin) is recorded as “binds”.

B11: MaGAL mutant probe (dsDNA)
DNA 1: GTAGGGAGTTTTTTTTGCTTGTGTGTGAAAAAAAGATAAA
DNA 2: TTTATCTTTTTTTCACACACAAGCAAAAAAAACTCCCTAC
In the case of B11, the binding result in the series with GST-MaMYB69 [6] is reported as “no binding”.
